Consider three substances from publication PMC3034353.

The target in assay [1] is Bacillus stearothermophilus DnaB helicase (B. stearothermophilus) (UniProt Q9X4C9). Description: AUC.
The target of assay [2] is Bacillus subtilis τ protein (wild type) (B. subtilis) (UniProt P09122). The assay can be described thus: SEC. For orientation: Size exclusion chromatography separates by hydrodynamic size, large species first.
The target of assay [3] is Bacillus subtilis τ protein L381P mutant (B. subtilis) (UniProt P09122). Description: SEC.
In assay [4] the target is Bacillus subtilis τ protein L381A mutant (B. subtilis) (UniProt P09122). The assay can be described thus: AUC.
For assay [5] the target is unchanged. The assay can be described thus: SEC.

As a reminder, the stoichiometry N is a count of units in the complex or per binding partner.

In assay [1], “Bacillus subtilis τ protein (wild type) (from UniProt P09122 1-563) (natural protein)” gave a stoichiometry N (τ pentamer per DnaB hexamer) of 1. This substance also displayed a stoichiometry N in assay [2] of 4.

For the substance “Bacillus subtilis τ protein L381P mutant (from UniProt P09122 1-563) (natural protein)”, the stoichiometry N in assay [3] stood at 3.

As to “Bacillus subtilis τ protein L381A mutant (from UniProt P09122 1-563) (natural protein)”, the stoichiometry N in assay [4] was 4; in assay [5] it was 3.
